Assay: yeast display, Sf9 membrane polyspecificity reagent, FACS + sequencing; frameworks hold sequencing errors
In short: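 Nanobodies came from a synthetic yeast display library in Saccharomyces cerevisiae BJ5465, induced with galactose for 36–48 hours and stained for 1 hour at 4 °C with 10% biotinylated, detergent-solubilized Sf9 membrane reagent. Cells were enriched on streptavidin microbeads and then FACS-sorted, with low and high (top ~1%) gates set on anti-HA fluorescence for expression and streptavidin fluorescence for reagent binding. Each polyreactivity label reflects the gate a clone came from. Genes were amplified by colony PCR, sequenced by MiSeq 2 × 250 and filtered by CDR length.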

| Sequence | polyreactivity (PSR sort gate) |
| --- | --- |
| QVQLVESGGGLVQAGGSLRLSCAASGFIFFTNTMGWYRQAPGKEWELVAAINSNGGRTYYADSVKGRFTISRDNAKNTVYLQMNSLKPEDTAVYYCAARSVGGVARLDYWGQGTQVTVSS | low polyreactivity |
| QVQLVESGGGLVQAGGSLRLSCAASGFIFFTYAMGWYRQAPGKERELVAAISSRGGSTYYADSVKGRFTISRDNAKNTVYLQMNSLKPEDTAVYYCADRTRRRRGEYDYWGQGTQVTVSS | high polyreactivity |
| QVQLVESGGGLVQAGGSLRLSCAASGFIFGANAMGWYRQAPGKERELVAAITWSAGRTYYADSVKGRFTISRDNAKNNVYLQMNSLKPEDTAVYYCAKQRARQSPEVGYWGQGTQVTVSS | high polyreactivity |
| QVQLVESGGGLVQAGGSLRLSCAASGFIFGDNAMGWYRQAPGKERELVAAINSGSRTSYADSVKGRFTISRDNAKNTVYLQMNSLKPEDTAVYYCAAESVSSGDNASRYDYWGQGTQVTVSS | low polyreactivity |
| QVQLVESGGGLVQAGGSLRLSCAASGFIFGDNAMGWYRQAPGKERELVAGITVSDGSTYYADSVKGRFTISRDNAKNTVYLQMNSLKPEDTAVYYCNAAGRYKPGAPYDYWGQGTQVTVSS | low polyreactivity |
| QVQLVESGGGLVQAGGSLRLSCAASGFIFGDYAMGWYRQAPGKEGELVAAIRGSDSTTYYADSVKGRFTISRDNAKNTVYLQMNSLKPEDTAVYYCAAVGVVPLKKSARVYYWGQGTQVTVSS | low polyreactivity |
| QVQLVESGGGLVQAGGSLRLSCAASGFIFGDYAMGWYRQAPGKERELVAAIRGSDSTTYYADSVKGRFTISRDNAKNTVYLQMNSLKPEDTAVYYCAAVGVVPRKKSARVYYWGQGTQVTVSS | low polyreactivity |
| QVQLVESGGGLVQAGGSLRLSCAASGFIFGEYTMGWYRQAPGKEREFVAAISWSGGSTSYADSVKGRFTISRDNAKNTVYLQMNSLKPEDTAVYYCAARYGSDYDYWGQGTQVTVSS | low polyreactivity |
| QVQLVESGGGLVQAGGSLRLSCAASGFIFGGFTMGWSRQAPGNERELVAAISRSGGSTYYADSVKGRFTISRDNAKNTVYLQMNSLKPEDTAVYYCATLNYYGEVEYWGQGTQVTVSS | high polyreactivity |
| QVQLVESGGGLVQAGGSLRLSCAASGFIFGGYAMGWYRHAPRKERELVAAISRSGGSTYYADSVKGRFTISRDNAKNTVYLQMNSLKPEDTAVYYCNAVPRRQGFNYWGQGTQVSVSS | high polyreactivity |
| QVQLVESGGGLVQAGGSLRLSCAASGFIFGGYAMGWYRQAPGKERELVAAISWSGDNTYYADSVKGRFTISRDNAKNTVYLQMNSLKPEDTAVYYCAADSYGQEYDYWGQGTQVTVSS | low polyreactivity |
| QVQLVESGGGLVQAGGSLRLSCAASGFIFGGYVMGWYRQAPGKERELVAAITWSGGSTYYADSVKGRFTISRDNAKHTVYVQLNSQKREDTAVYYCNSRVPARLWRWSPYPVDYWGQGTQVTLSS | high polyreactivity |
| QVQLVESGGGLVQAGGSLRLSCAASGFIFGIYDMGWYRQAPGKERELVAAITYSGSSTYYADSVKGRFTISRDNAKNTVYLQMNSLKQEDTAVYYCNKTPWDWDYWDPEYYYWGQGTQVTVSS | high polyreactivity |
| QVQLVESGGGLVQAGGSLRLSCAASGFIFGKYAMGWYRQAPGKERELVAAITSDGRTYYADSVKGRFTISRDNAKNTVYLQMNSLKPEDTAVYYSAATRYGHRYYYRPYEYWGQGSQVTVSS | high polyreactivity |
| QVQLVESGGGLVQAGGSLRLSCAASGFIFGLYAIGWYRQAPGKERELVAAISRSGGSTYYADSVKGRFTISRDNAKNTVYLQMNSLKPEDTAVYYCNARYSWPRATWYDYWGQGTQVTVSS | high polyreactivity |
| QVQLVESGGGLVQAGGSLRLSCAASGFIFGNNDMGWYRPAPGKERELVAAISNSGGRTYYADSVKGRFTISRDNAKNTVYLQMNSLKPEDTAVYYCAKAYRPPGYDSWGQGTQVTVSS | high polyreactivity |
| QVQLVESGGGLVQAGGSLRLSCAASGFIFGNNDRGWYRQAPGKERELVAGITWSGSSTYYADSVKGRFTISRDNAKNTVYLQMNSLKPEDTAVYYCIRVFTWRYGYRYEYWGQGTQVTVSS | high polyreactivity |
| QVQLVESGGGLVQAGGSLRLSCAASGFIFGPYAMGWYRTAPGKERELVAAITYSSGSTYYADSVKGRFTISRDNAKNTVYLQMNSLKPEDTAVYYCNAEFWYETLYEYDYWGQGTQVTVSS | high polyreactivity |
| QVQLVESGGGLVQAGGSLRLSCAASGFIFGQYAMGWYRQAPGKERELVAAISRSGGSTYYADSVKGRFTISRDNAKNTVYLQMNSLKPEDTAVYYCNRRARGDSYRLDYWGQGTQVTVSS | high polyreactivity |
| QVQLVESGGGLVQAGGSLRLSCAASGFIFGRYAMGWYRQAPGKERELVAAITASGGRTYYADSVKGRFTISRDNAKNTVYLQMNSLKPEDTAVYYCNTPSLWCGEDYWGQGTQVTVSS | high polyreactivity |
| QVQLVESGGGLVQAGGSLRLSCAASGFIFGRYAMGWYRQAPGKERELVAGISSRGGRTYYADSVKGRFTISRDTAKNPVFLQINSLKPEDTAVYYCGAAGLTDYVRYDYWGQGTQVTVSS | high polyreactivity |

| Sequence | polyreactivity (PSR sort gate) |
| --- | --- |
| QVQLVESGGGLVQAGGSLRLSCAASGFIFGRYAMVWYRQAPGKERHFVASISWSGGSTHYADSVKGRFTISREKAKNTVYLHMNSLKPVDTAVYYCARGFPPYRVTHMNYWGQGTLVTVSS | high polyreactivity |
| QVQLVESGGGLVQAGGSLRLSCAASGFIFGRYTMGWYRQAPWKERELVAAISGSGGRTYYADSVKGRFTISRDNAKNTVYLQMNSLKPEDTSVYYCATYGYFYYDYWGQGTQVTVSS | high polyreactivity |
| QVQLVESGGGLVQAGGSLRLSCAASGFIFGRYTMGWYRQATGKERELVAAISGSDVTTYYADSVKGRFTISRDNAKNTVYLQMNSLKPEDTAVYYCAADSPWAYYEYDYWGQGTHVTVSS | low polyreactivity |
| QVQLVESGGGLVQAGGSLRLSCAASGFIFGSNAMGWYRQAPGKERELVAAISRSGGSTYYADSVKGRFTISRDNAKNTVYLQMNSLKPEHTAVYYCASYLYKSRYLPEYDYWGQGTQVTVSS | high polyreactivity |
| QVQLVESGGGLVQAGGSLRLSCAASGFIFGSYTMGWYRQAPGKERELVAAITTGGSTNYADSVKGRFTISRDNAKNTVYLQMNSLKPEDTAVYYCAARTVGFYRYDYWGQGTQVTVSS | low polyreactivity |
| QVQLVESGGGLVQAGGSLRLSCAASGFIFGTNAMGWYRQAPGKERELVAAISIGDSTYYADSVKGRFTISRDNAKNTVYVQKNSLKPEDTAVYYCNARAYSIYLLQKTYAFNYWGQGTQVTVSS | low polyreactivity |
| QVQLVESGGGLVQAGGSLRLSCAASGFIFGTYAMGWYRQAPGKERELVAAISVGGGSTYYADSVKGRFTISRDNAKNSVYLQMNSLKPEDTAVYYCNALYNDHFSWFSFGYWGQGTQVTVSS | low polyreactivity |
| QVQLVESGGGLVQAGGSLRLSCAASGFIFGTYAMGWYRQAPGKERELVAAISVGGGSTYYADSVKGRFTISRDNAKNTVYLQMNSLKPEDTAVYYCAAVQLYQKHQITYVAHEYWGQGTQVTVSS | low polyreactivity |
| QVQLVESGGGLVQAGGSLRLSCAASGFIFGTYVMGWYRQAPGKERELVAAISESGGRTYYADSVKGRFTISRDNAKNTVYLQMNSLKPEDTAVYYCAKVRHIRFHYYYGYQSYYYWGQGTQVTVSS | high polyreactivity |
| QVQLVESGGGLVQAGGSLRLSCAASGFIFGWYAMGWYRQAPGKERELVAVIRSGGRTNYADSVKGRFTISRDNAKNTVYLQMNSLKPEDTAVYDCNAVGGRGYGGGFWGQGTQVTVSS | high polyreactivity |
| QVQLVESGGGLVQAGGSLRLSCAASGFIFGYNAMGWYRQAPGKERELVAAIRAGDGSTYYADSVKGRFTISRDNAKNTVYLQMNSLKPEDTAVYYCAAAWRQSGYRYGYWGQGTQVTVSS | high polyreactivity |
| QVQLVESGGGLVQAGGSLRLSCAASGFIFGYNAMGWYRQAPGKERELVAAITWIGGTTYYADSVKGRFTISRDNAKNTVYLQMNSLKPEDTAVYYCARQRSYGRSSYSYGYDYWGQGTQVTVSS | high polyreactivity |
| QVQLVESGGGLVQAGGSLRLSCAASGFIFGYNAMGWYRQEPGKERELVARIRYRGARTYYADSVKGRFTISRDNAKNTVYLQMNSLKPEDTAVYYCAAVASWPGGYDYWGQGTQVTVSS | high polyreactivity |
| QVQLVESGGGLVQAGGSLRLSCAASGFIFGYNGMGWYRQAPGKERELVAGITYSDGSTYYADSVKGRFTISRDNAKNTVYLQMNSLKPEDTAVYYCAVDVIYYWAEDYDYWGQGTQVTVSS | low polyreactivity |
| QVQLVESGGGLVQAGGSLRLSCAASGFIFGYNTMGWYRQAPGKERELVAAISWSGGSTYYADSVKGRFTISRVNAKNSVYLQMNSLKPEDTAVYYCATVSRSYSELDYWGQGTQVTVSS | low polyreactivity |
| QVQLVESGGGLVQAGGSLRLSCAASGFIFGYYAMGWDRQAPGKERELVAAITSDGNTDYSDSVKGRFTISRDNAKNTVYLQMNSLKPEDTAVYYCATDWVDHYDYWGQGTQVTVSS | low polyreactivity |
| QVQLVESGGGLVQAGGSLRLSCAASGFIFGYYAMGWYRHAPGKERELVAAISYSGGSTYYADSVKGRFTISRDNAKNTVYLQMYSLKPEDTAVYYCAKYGQSNYDWGQGTQVTLSS | high polyreactivity |
| QVQLVESGGGLVQAGGSLRLSCAASGFIFGYYAMGWYRPAPGNERELVAAIDWSDGSTYYADSVKGRFTISRDNAKNTVYLQMNSLKPEDTAVYYSAVDTYSQQAGDYEYWGQGTQVTVSS | low polyreactivity |
| QVQLVESGGGLVQAGGSLRLSCAASGFIFGYYAMGWYRQAPGKERELVAAISRSGGRTYYADSVKGRFTISRDNAKNTVYLQMNSLKPEDTAVYYCAKGSNRSRGYYWGQGTQVTVSS | high polyreactivity |
| QVQLVESGGGLVQAGGSLRLSCAASGFIFGYYAMGWYRQAPGKERELVAAISSGGTTTYYADSVKGRFTISRDNAKNTVYLQMNSLKPEDTAVYYCAKVSQRRVDNSDYDYWGQGTQVTVSS | high polyreactivity |

Reference: the nanobody polyreactivity screen of Harvey et al. (2022)
